Laboratory results from article doi:10.1101/2022.03.05.483071.

Biological target: KIF5A ΔExon27-GFP (human) (UniProt Q12840)
Assay: single-molecule TIRF microscopy, fluorescence intensity of moving spots

percent of moving spots that are a single dimer: 25%
Substance: KIF5A ΔExon27-GFP (from UniProt Q12840 1-998) (natural protein)
